The results in this text go back to paper PMC2944805, “A Major Determinant of Cyclophilin Dependence and Cyclosporine Susceptibility of Hepatitis C Virus Identified by a Genetic Approach” (PLoS Pathogens, 2010).

In this assay the target is T1, 15N-labeled human CyPA (human, UniProt P62937 1-165, 15N-labeled).
T1 construct: human cyclophilin A (CyPA); also called cyclophilin A
The assay can be described thus: NMR titration; peptide added stepwise to 15N-labeled CyPA (~0.5 mM); 2D 1H,15N-HSQC, 22°C; 50 mM NaH2PO4/Na2PO4, pH 6.3, 40 mM NaCl, 2 mM EDTA, 1 mM DTT. Conditions: both partners purified.

B1: synthetic WT peptide, residues 304-323 of NS5A (peptide)
peptide: GFPRALPAWARPDYNPPLVE
notes: residues 304-323 of NS5A of HCV JFH-1 (genotype 2a); numbers count on: NS5A itself, not the polyprotein; also called 20-mer peptide (G304-E323); source: synthetic peptide, bought: NEO BioScience
For B1, the binding result is reported as “binds”.
